Several values for one entry are separate records, joined by “and”; a condition that tells them apart may be missing. Identical values can stand only once.
T1: tPA-F-EGF-GST (finger and EGF domains of human tPA with C-terminal GST tag) (human; Schistosoma japonicum, UniProt P00750 36-122)
T1 construct: domain: F-EGF; also called F-EGF-tPA; not shown: vector residues and thrombin cleavage site; Schistosoma japonicum glutathion-S-transferase (GST) tag
T1 sequence (looked up): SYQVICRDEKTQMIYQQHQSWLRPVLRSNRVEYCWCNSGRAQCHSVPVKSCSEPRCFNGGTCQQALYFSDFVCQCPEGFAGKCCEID

B1: recombinant human β2-glycoprotein I (expressed in insect cells) (other, UniProt P02749 20-345, looked up)
chain: GRTCPKPDDLPFSTVVPLKTFYEPGEEITYSCKPGYVSRGGMRKFICPLTGLWPINTLKCTPRVCPFAGILENGAVRYTTFEYPNTISFSCNTGFYLNGADSAKCTEEGKWSPELPVCAPIICPPPSIPTFATLRVYKPSAGNNSLYRDTAVFECLPQHAMFGNDTITCTTHGNWTKLPECREVKCPFPSRPDNGFVNYPAKPTLYYKDKATFGCHDGYSLDGPEEIECTKLGNWSAMPSCKASCKVPVKKATVVYQGERVKIQEKFKNGMLHGDKVSFFCKNKEKKCSYTEDAQCIDGTIEVPKCFKEHSSLAFWKTDASDVKPC
notes: also called recombinant β2gpi; rβ2gpi
B2: human factor XII (Hageman factor) (enzyme, UniProt P00748 20-615, looked up)
chain: IPPWEAPKEHKYKAEEHTVVLTVTGEPCHFPFQYHRQLYHKCTHKGRPGPQPWCATTPNFDQDQRWGYCLEPKKVKDHCSKHSPCQKGGTCVNMPSGPHCLCPQHLTGNHCQKEKCFEPQLLRFFHKNEIWYRTEQAAVARCQCKGPDAHCQRLASQACRTNPCLHGGRCLEVEGHRLCHCPVGYTGAFCDVDTKASCYDGRGLSYRGLARTTLSGAPCQPWASEATYRNVTAEQARNWGLGGHAFCRNPDNDIRPWCFVLNRDRLSWEYCDLAQCQTPTQAAPPTPVSPRLHVPLMPAQPAPPKPQPTTRTPPQSQTPGALPAKREQPPSLTRNGPLSCGQRLRKSLSSMTRVVGGLVALRGAHPYIAALYWGHSFCAGSLIAPCWVLTAAHCLQDRPAPEDLTVVLGQERRNHSCEPCQTLAVRSYRLHEAFSPVSYQHDLALLRLQEDADGSCALLSPYVQPVCLPSGAARPSETTLCQVAGWGHQFEGAEEYASFLQEAQVPFLSLERCSAPDVHGSSILPGMLCAGFLEGGTDACQGDSGGPLVCEDQAAERRLTLQGIISWGSGCGDRNKPGVYTDVAYYLAWIREHTVS
notes: also called FXII; fXII
B3: fibrin peptide 85 (FP13), human fibrin α-chain fragment α148-160 (peptide)
peptide: KRLEVDIDIKIRS
notes: also called fibrin fragment α147-159 FP13
B4: human IAPP amyloid core fragment (ΔhIAPP) (peptide)
peptide: SNNFGAILSS
notes: also called hΔIAPP; human amylin fragment
B5: tPA K1-GST (kringle 1 domain of human tPA with C-terminal GST tag) (other, UniProt P00750 123-210, looked up)
chain: TRATCYEDQGISYRGTWSTAESGAECTNWNSSALAQKPYSGRRPDAIRLGLGNHNYCRNPDRDSKPWCYVFKAGKYSSEFCSTPACSE
notes: domain: K1; not shown: vector residues and thrombin cleavage site; Schistosoma japonicum glutathion-S-transferase (GST) tag
B6: plasmin (activated plasminogen) (enzyme, UniProt P00747 97-810, looked up)
chain: KVYLSECKTGNGKNYRGTMSKTKNGITCQKWSSTSPHRPRFSPATHPSEGLEENYCRNPDNDPQGPWCYTTDPEKRYDYCDILECEEECMHCSGENYDGKISKTMSGLECQAWDSQSPHAHGYIPSKFPNKNLKKNYCRNPDRELRPWCFTTDPNKRWELCDIPRCTTPPPSSGPTYQCLKGTGENYRGNVAVTVSGHTCQHWSAQTPHTHNRTPENFPCKNLDENYCRNPDGKRAPWCHTTNSQVRWEYCKIPSCDSSPVSTEQLAPTAPPELTPVVQDCYHGDGQSYRGTSSTTTTGKKCQSWSSMTPHRHQKTPENYPNAGLTMNYCRNPDADKGPWCFTTDPSVRWEYCNLKKCSGTEASVVAPPPVVLLPDVETPSEEDCMFGNGKGYRGKRATTVTGTPCQDWAAQEPHRHSIFTPETNPRAGLEKNYCRNPDGDVGGPWCYTTNPRKLYDYCDVPQCAAPSFDCGKPQVEPKKCPGRVVGGCVAHPHSWPWQVSLRTRFGMHFCGGTLISPEWVLTAAHCLEKSPRPSSYKVILGAHQEVNLEPHVQEIEVSRLFLEPTRKDIALLKLSSPAVITDKVIPACLPSPNYVVADRTECFITGWGETQGTFGAGLLKEAQLPVIENKVCNRYEFLNGRVQSTELCAGHLAGGTDSCQGDSGGPLVCFEKDKYILQGVTSWGLGCARPNKPGVYVRVSRFVTWIEGVMRNN

What was measured:
[1] = target: B2; assay: ELISA, factor XII immobilized, β2gpi concentration series, detection with antibody 2B2
[2] = target: T2, recombinant tissue-type plasminogen activator (tPA) (human, UniProt P00750 36-562); assay: ELISA, tPA immobilized, β2gpi concentration series, detection with antibody 2B2
T2 construct: Commercial full-length recombinant tPA; also called Alteplase; Actilyse

[3] = target: T3, human amyloid-β peptide Aβ(1-40) (human); assay: ELISA, coated ligand, FXII concentration series, 10 mM εACA
T3 construct: also called hAβ(1-40); amyloid-β(1-40)
Excerpt: (§1) Wells were coated in triplicate. […] Ten μg of the peptides that contain cross-β structure, as well as the negative control peptide MΔIAPP and phosphate-buffered saline (PBS), were spotted in duplicate onto methanol-activated nitrocellulose.

[4] = target: T1, tPA-F-EGF-GST (finger and EGF domains …); assay: ELISA, 25 µg/ml peptide immobilized, excess εACA, anti-GST detection
[5] = target: T2, recombinant tissue-type plasminogen …; assay: ELISA, 25 µg/ml peptide immobilized on Exiqon plates
[6] = target: B2; assay: ELISA, coated ligand, FXII concentration series, 10 mM εACA
Excerpt: as §1

[7] = target: B2; assay: dot blot, 10 µg peptide spotted, 2 nM FXII
Excerpt: Ten μg of the peptides that contain cross-β structure, as well as the negative control peptide mΔIAPP and phosphate-buffered saline (PBS), were spotted in duplicate.

[8] = target: T3, human amyloid-β peptide Aβ(1-40); assay: pull-down with Aβ fibrils, Western blot
Protocol: “Control,” medium before the pull-down, “Aβ,” washed amyloid Aβ pellet, after the pull-down, “Sup,” medium after extraction with Aβ. […] MΔIAPP was coated as non-amyloid negative control (Panel E). […] The same sections were incubated with Congo red (Panels I, K, and M) to locate amyloid deposits. Panels N and O: Pull-down assay with insoluble Aβ fibrils and finger domains. […] “Control,” medium before the pull-down, “Aβ,” washed amyloid Aβ pellet, after the pull-down, “Sup,” medium after extraction with Aβ.
Conditioned medium was used for pull-down assays using Aβ and IAPP fibrils, followed by Western blot analyses.

[9] = target: B2; assay: ELISA, immobilized peptide
[10] = target: T4, Fn F4-5-GST (finger domains 4-5 of human fibronectin with C-terminal GST tag) (human; Schistosoma japonicum, UniProt P02751 182-276); assay: ELISA, immobilized peptide
T4 construct: domain: fibronectin type I domains 4-5; Printed in places as Fn F4-S-GST (a misprint of F4-5); also called Fn F4-S-GST; fibronectin F4-5; not shown: (G)RP vector residues and thrombin cleavage site; Schistosoma japonicum glutathion-S-transferase (GST) tag

[11] = target: T2, recombinant tissue-type plasminogen …; assay: ELISA, immobilized peptide, 10 mM εACA
[12] = target: T3, human amyloid-β peptide Aβ(1-40); assay: ELISA, Aβ coated on plate, plasmin overlaid

T3 sequence (peptide, as listed by the source): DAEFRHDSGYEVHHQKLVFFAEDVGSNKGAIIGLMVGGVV
T4 sequence (P02751 182-276, tags left off): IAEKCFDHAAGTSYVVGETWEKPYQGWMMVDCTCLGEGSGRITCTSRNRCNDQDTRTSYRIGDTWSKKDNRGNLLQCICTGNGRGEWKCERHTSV

Binder: B1
- Kd [1]: 0.9 µg/mL and 20 nM
- Kd [2]: 2.3 µg/mL and 51 nM

Binder: B2
- Kd [3]: ~2 nM

Binder: B3
- Kd [4]: 2 nM
- Kd [5]: 5 nM
- Kd [6]: ~11 nM

Binder: B4
- binding result [7]: binds

Binder: B5
- binding result [8]: no binding

Binder: YTIAALLSPYS [amyloid fragment of transthyretin (TTR11)]
- binding result [9]: binds
- binding result [10]: binds
- binding result [11]: binds

Binder: AASIKVAVSADR [laminin α1-chain(2097-2108) amyloid core peptide (LAM12)]
- binding result [9]: binds
- binding result [11]: binds

Binder: B6
- Kd [12]: 47 nM
